This test addresses mCherry-LHBs (HBV large envelope protein with mCherry at the N-terminus) (Hepatitis B virus) (UniProt P03138). Put plainly: FRET or BRET. Background: BRET reads energy transfer from a luciferase to a nearby fluorophore.

Turning to “mCherry-LHBs (HBV large envelope protein with mCherry at the N-terminus) (from UniProt P03138 1-389) (natural protein)”, the FRET efficiency was 35%.

For the origin of these results see article PMC11933560.
